Target: the molecule itself
Test: cryo-EM structure; BbZIP in amphipol PMAL-C8 nanoparticles, purified with Cd2+, 20 mM HEPES pH 7.5, 100 mM NaCl; C2 symmetry, 3.05 Å (C1: 3.3 Å)

B1: ZIP-family zinc transporter from Bordetella bronchiseptica (BbZIP) (natural protein, UniProt A0A0H3LM39 1-309, looked up)
chain: MNQPSSLAADLRGAWHAQAQSHPLITLGLAASAAGVVLLLVAGIVNALTGENRVHVGYAVLGGAAGFAATALGALMALGLRAISARTQDAMLGFAAGMMLAASAFSLILPGLDAAGTIVGPGPAAAAVVALGLGLGVLLMLGLDYFTPHEHERTGHQGPEAARVNRVWLFVLTIILHNLPEGMAIGVSFATGDLRIGLPLTSAIAIQDVPEGLAVALALRAVGLPIGRAVLVAVASGLMEPLGALVGVGISSGFALAYPISMGLAAGAMIFVVSHEVIPETHRNGHETTATVGLMAGFALMMFLDTALG
notes: Zrt-/Irt-like protein (ZIP) zinc transporter of Bordetella bronchiseptica, full length gene synthesized and cloned into pET15b; molecular weight 31 kDa; Membrane protein; purified with Cd2+ (CdCl2) present; three Cd2+ ions per protomer and two phosphatidylethanolamine lipids at the dimer in the cryo-EM structure; also called WT BbZIP; source: E. coli C43 (DE3), purified (Ni-NTA, thrombin …)
  stoichiometry N: 2

Source: article PMC10256678, “Structural mechanism of intracellular autoregulation of zinc uptake in ZIP transporters” (Nature Communications, 2023)
